Assay results published in paper PMC2711901 (Nature structural & molecular biology, 2009).

Target: T1, GST-Ubc9 (S. pombe, UniProt P40984 1-157)
T1 sequence (looked up): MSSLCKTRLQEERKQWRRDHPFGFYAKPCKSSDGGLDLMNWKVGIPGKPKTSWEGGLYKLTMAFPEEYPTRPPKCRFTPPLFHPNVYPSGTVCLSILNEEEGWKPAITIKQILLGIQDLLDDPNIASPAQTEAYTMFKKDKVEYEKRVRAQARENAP
Assay: pull-down

B1: 6His-Rad60 SLD2 (domain or fragment, S. pombe, UniProt Q9USX3 332-406, looked up)
chain: KLITLLLRSSKSEDLRLSIPVDFTVKDLIKRYCTEVKISFHERIRLEFEGEWLDPNDQVQSTELEDEDQVSVVLD
B1: binds.
